Tests used:
TfPAMO = molecular target: T1, TfPAMO (Thermobifida fusca, UniProt Q47PU3); experiment: small-scale conversion; format: biochemical; conditions: racemic substrate; enzyme preparation not given
T1 construct: gene pamO

O=C1CCC1 = experiment: purified protein
O=C1CC2C=CCC12 = experiment: purified protein
O=C1CCCCC1 = experiment: purified protein
TmCHMO = molecular target: T2, TmCHMO (Thermocrispum municipale, UniProt A0A1L1QK39); set-up: steady-state kinetics, NADPH consumption followed by absorbance at 340 nm; conditions: 150 uM NADPH, pH 7.0, 25 °C; substrate
T2 construct: purified recombinant enzyme (E. coli used as expression host for whole-cell work)
T2 sequence (A0A1L1QK39 1-541): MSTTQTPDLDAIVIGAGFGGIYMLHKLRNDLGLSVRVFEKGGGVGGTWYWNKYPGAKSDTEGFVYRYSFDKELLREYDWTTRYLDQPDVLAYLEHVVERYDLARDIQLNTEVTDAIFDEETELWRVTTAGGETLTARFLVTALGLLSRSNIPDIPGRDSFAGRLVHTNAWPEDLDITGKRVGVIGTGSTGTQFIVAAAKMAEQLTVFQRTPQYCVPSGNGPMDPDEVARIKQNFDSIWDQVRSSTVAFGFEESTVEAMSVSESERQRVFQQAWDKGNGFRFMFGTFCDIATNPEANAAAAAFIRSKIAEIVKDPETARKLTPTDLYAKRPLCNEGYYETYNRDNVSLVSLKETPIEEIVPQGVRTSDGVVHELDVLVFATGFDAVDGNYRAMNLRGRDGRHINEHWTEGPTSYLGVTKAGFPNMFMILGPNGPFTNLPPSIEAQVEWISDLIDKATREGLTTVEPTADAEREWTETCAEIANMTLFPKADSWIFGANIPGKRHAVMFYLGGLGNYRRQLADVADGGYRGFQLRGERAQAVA
Protocol: Steady-State Kinetics. Steady-state kinetic parameters for purified TmCHMO and AcCHMO were determined using a V-660 spectrophotometer (Jasco). Enzyme (0.02-4 μM), NADPH (150 μM), and increasing substrate concentrations were reacted in air-saturated 50 mM Tris-HCl at pH 7.0 and 25 °C. The rate of NADPH consumption was determined by following the decrease in absorbance at 340 nm (ɛ340 = 6.22 mM-1 cm-1 ). The initial rates of the reactions were plotted as a function of the substrate concentrations. […] Among the assayed compounds (Figure S3), only progesterone and cyclopentadecanone (50 μM) were not substrates of either enzyme based on the NADPH consumption assay. 19 4. EXPERIMENTAL SECTION Materials. NADPH was acquired from Jülich Chiral Solutions GmbH. All other materials were acquired from Sigma-Aldrich unless otherwise specified. Cloning of TmCHMO and BVMOs Purification. The amino acid sequence of a putative CHMO from the thermophilic actinomycete T. municipale DSM 44069 was retrieved from the NCBI database (http://www.ncbi.nlm.nih.gov). This organism is able to grow at 28-60 °C.[8] The TmCHMO sequence was found by carrying out a BLASTP (http://blast.ncbi.nlm.nih.gov/Blast.cgi) using the amino acid sequence of AcCHMO as a query sequence. A codon-optimized TmCHMO gene was synthetized and cloned into pUC57 plasmid by GenScript. […]

steady-state kinetics [1] = substrate: O=C1CCCCC1; experiment: steady-state kinetics; format: biochemical, Thermocrispum municipale
steady-state kinetics [2] = substrate: O=C1CCC1; experiment: steady-state kinetics; format: biochemical, Thermocrispum municipale
steady-state kinetics [3] = substrate: O=C1CC2C=CCC12; experiment: steady-state kinetics; format: biochemical, Thermocrispum municipale
[4] = substrate: CC(=O)c1ccccc1; experiment: purified protein, by the assay type; set-up: steady-state kinetics, NADPH consumption followed by absorbance at 340 nm; conditions: pH 7.0; 25.0 °C
Protocol: (§1) Steady-State Kinetics. Steady-state kinetic parameters for purified TmCHMO and AcCHMO were determined using a V-660 spectrophotometer (Jasco). Enzyme (0.02-4 μM), NADPH (150 μM), and increasing substrate concentrations were reacted in air-saturated 50 mM Tris-HCl at pH 7.0 and 25 °C. The rate of NADPH consumption was determined by following the decrease in absorbance at 340 nm (ɛ340 = 6.22 mM-1 cm-1 ). The initial rates of the reactions were plotted as a function of the substrate concentrations. […] Among the assayed compounds (Figure S3), only progesterone and cyclopentadecanone (50 μM) were not substrates of either enzyme based on the NADPH consumption assay. 19 4. EXPERIMENTAL SECTION Materials. NADPH was acquired from Jülich Chiral Solutions GmbH. All other materials were acquired from Sigma-Aldrich unless otherwise specified. Cloning of TmCHMO and BVMOs Purification. The amino acid sequence of a putative CHMO from the thermophilic actinomycete T. municipale DSM 44069 was retrieved from the NCBI database (http://www.ncbi.nlm.nih.gov). This organism is able to grow at 28-60 °C.[8] The TmCHMO sequence was found by carrying out a BLASTP (http://blast.ncbi.nlm.nih.gov/Blast.cgi) using the amino acid sequence of AcCHMO as a query sequence. A codon-optimized TmCHMO gene was synthetized and cloned into pUC57 plasmid by GenScript. The TmCHMO gene was subcloned using standard methods into the pCRE2 plamid[9] with XhoI and HindIII restriction sites at the 5’ end and 3’ end, respectively. The resulting plasmid is a pBAD vector harboring a gene encoding TmCHMO fused to the C-terminus of a thermostable variant of phosphite dehydrogenase (PTDH). A histidine tag at the N-terminus of the PTDH is also included in this construct. The same construct containing either the AcCHMO gene or the TfPAMO gene, instead of the TmCHMO gene, was carried out for a previous study[9] and used here to obtain the corresponding fusion proteins. The TmCHMO gene was also subcloned into a pBAD plasmid containing the SUMO (small ubiquitin-related modifier) gene with a N-terminal histidine tag (pBAD-His-Tag-SUMO-TmCHMO).

[5] = substrate: O=C1CCCC1; experiment: purified protein, by the assay type; set-up: steady-state kinetics, NADPH consumption followed by absorbance at 340 nm; conditions: pH 7.0; 25.0 °C
Protocol: as §1

[6] = substrate: CCCCCCCCC(C)=O; experiment: purified protein, by the assay type; set-up: steady-state kinetics, NADPH consumption followed by absorbance at 340 nm; conditions: pH 7.0; 25.0 °C
Protocol: as §1

[7] = substrate: CCC(C)=O; experiment: purified protein, by the assay type; set-up: steady-state kinetics, NADPH consumption followed by absorbance at 340 nm; conditions: pH 7.0; 25.0 °C
Protocol: as §1

[8] = substrate: CCCCCCC(C)=O; experiment: purified protein, by the assay type; set-up: steady-state kinetics, NADPH consumption followed by absorbance at 340 nm; conditions: pH 7.0; 25.0 °C
Protocol: as §1

[9] = substrate: CC(=O)Cc1ccccc1; experiment: purified protein, by the assay type; set-up: steady-state kinetics, NADPH consumption followed by absorbance at 340 nm; conditions: pH 7.0; 25.0 °C
Protocol: as §1

T1 sequence (Q47PU3 whole entry): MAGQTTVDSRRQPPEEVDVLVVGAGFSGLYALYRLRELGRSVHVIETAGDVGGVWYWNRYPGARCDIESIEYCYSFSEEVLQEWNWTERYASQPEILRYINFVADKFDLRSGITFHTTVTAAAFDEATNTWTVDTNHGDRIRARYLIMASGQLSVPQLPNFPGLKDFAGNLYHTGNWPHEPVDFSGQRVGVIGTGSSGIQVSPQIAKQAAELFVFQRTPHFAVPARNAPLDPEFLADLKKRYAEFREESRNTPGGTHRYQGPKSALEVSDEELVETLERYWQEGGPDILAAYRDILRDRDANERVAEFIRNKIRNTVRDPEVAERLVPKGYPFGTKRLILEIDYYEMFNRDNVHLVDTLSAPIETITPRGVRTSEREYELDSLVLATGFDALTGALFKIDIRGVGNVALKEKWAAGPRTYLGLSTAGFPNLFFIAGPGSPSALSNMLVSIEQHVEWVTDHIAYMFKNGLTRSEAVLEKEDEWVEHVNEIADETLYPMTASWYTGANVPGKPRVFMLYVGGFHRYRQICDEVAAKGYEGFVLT

Molecule: O=C1CC2C=CCC12 (racemic) [bicyclo[3.2.0]hept‐2‐en‐6‐one]
- small-scale conversion (TfPAMO): By contrast, TfPAMO produced all four possible lactones

Molecule: AcCHMO (Acinetobacter johnsonii)
- kcat (O=C1CCC1): 4 s⁻¹
- kcat (O=C1CC2C=CCC12): 4 s⁻¹
- Km (O=C1CCCCC1): 9 µM
- kcat (O=C1CCCCC1): 6 s⁻¹

Molecule: CSc1ccccc1 [thioanisole]
- Km (TmCHMO): < 60 µM

B1: TmCHMO (Thermocrispum municipale DSM 44069) (protein)
chain: MSTTQTPDLDAIVIGAGFGGIYMLHKLRNDLGLSVRVFEKGGGVGGTWYWNKYPGAKSDTEGFVYRYSFDKELLREYDWTTRYLDQPDVLAYLEHVVERYDLARDIQLNTEVTDAIFDEETELWRVTTAGGETLTARFLVTALGLLSRSNIPDIPGRDSFAGRLVHTNAWPEDLDITGKRVGVIGTGSTGTQFIVAAAKMAEQLTVFQRTPQYCVPSGNGPMDPDEVARIKQNFDSIWDQVRSSTVAFGFEESTVEAMSVSESERQRVFQQAWDKGNGFRFMFGTFCDIATNPEANAAAAAFIRSKIAEIVKDPETARKLTPTDLYAKRPLCNEGYYETYNRDNVSLVSLKETPIEEIVPQGVRTSDGVVHELDVLVFATGFDAVDGNYRAMNLRGRDGRHINEHWTEGPTSYLGVTKAGFPNMFMILGPNGPFTNLPPSIEAQVEWISDLIDKATREGLTTVEPTADAEREWTETCAEIANMTLFPKADSWIFGANIPGKRHAVMFYLGGLGNYRRQLADVADGGYRGFQLRGERAQAVA
notes: purified recombinant enzyme (E. coli used as expression host for whole-cell work)
- kcat (steady-state kinetics [1]): 2 s⁻¹
- kcat (steady-state kinetics [2]): 2 s⁻¹
- kcat (steady-state kinetics [3]): 2 s⁻¹
- Km [4]: 5 mM
- Km [5]: 20 µM
- Km [6]: 50 µM
- Km [7]: 500 µM
- Km [8]: 100 µM
- Km [9]: 200 µM
